Test results published in US20140323691A1.

Key:
[1] = biological target: BxpB (exosporium basal layer protein) (Bacillus anthracis); experiment: LC-MS/MS and immunoblot analyses of BxpB-BclA and BxpB-(BclA NTD-eGFP) complexes
[2] = biological target: BxpB (exosporium basal layer protein) (Bacillus anthracis)
[3] = biological target: BxpB (exosporium basal layer protein) (Bacillus anthracis); experiment: densitometry of anti-BxpB and anti-eGFP immunoblots

Substance	NTDs attached to a single molecule of BxpB (per molecule of BxpB) [1]	frequency of multiple attachments [2]	fusion proteins per molecule of BxpB (band 1) (per molecule of BxpB) [3]	fusion proteins per molecule of BxpB (band 2) (per molecule of BxpB) [3]	fusion proteins per molecule of BxpB (band 3) (per molecule of BxpB) [3]
BclA (collagen-like glycoprotein of the Bacillus anthracis exosporium nap)	< 3	57%	–	–	–
BclA NTD-enhanced green fluorescence protein (eGFP) fusion protein	–	18%	1	2	3
